Laboratory results as given in patent US20140286952A1 (BOARD OF SUPERVISORS FOR THE UNIVERSITY OF LOUISIA SYSTEM …, published 2014).

How the values were obtained:
[1] = target: zonula occludens-1 (ZO-1), endogenous protein of prostate cancer cells and tumor specimens (UniProt Q07157); test: cell-based or functional assay
[2] = target: zonula occludens-1 (ZO-1), endogenous protein of prostate cancer cells and tumor specimens (UniProt Q07157); test: in situ proximity ligation assay in PC-3CTRwt cells, 50 nM CT for 30 seconds
[3] = target: T1, zonula occludens-1 (ZO-1), endogenous protein of prostate cancer cells and tumor specimens (UniProt Q07157 1-1748, limits assumed); test: GST pull-down from PC-3 cell lysates, ZO-1 immunoblot
T1 construct: whole, on cells; Intracellular protein; detected in cell lysates or fixed cells with anti-ZO-1 serum; The cells and tissues are human; also called tight junction protein 1; TJP-1
T1 sequence (Q07157 whole entry): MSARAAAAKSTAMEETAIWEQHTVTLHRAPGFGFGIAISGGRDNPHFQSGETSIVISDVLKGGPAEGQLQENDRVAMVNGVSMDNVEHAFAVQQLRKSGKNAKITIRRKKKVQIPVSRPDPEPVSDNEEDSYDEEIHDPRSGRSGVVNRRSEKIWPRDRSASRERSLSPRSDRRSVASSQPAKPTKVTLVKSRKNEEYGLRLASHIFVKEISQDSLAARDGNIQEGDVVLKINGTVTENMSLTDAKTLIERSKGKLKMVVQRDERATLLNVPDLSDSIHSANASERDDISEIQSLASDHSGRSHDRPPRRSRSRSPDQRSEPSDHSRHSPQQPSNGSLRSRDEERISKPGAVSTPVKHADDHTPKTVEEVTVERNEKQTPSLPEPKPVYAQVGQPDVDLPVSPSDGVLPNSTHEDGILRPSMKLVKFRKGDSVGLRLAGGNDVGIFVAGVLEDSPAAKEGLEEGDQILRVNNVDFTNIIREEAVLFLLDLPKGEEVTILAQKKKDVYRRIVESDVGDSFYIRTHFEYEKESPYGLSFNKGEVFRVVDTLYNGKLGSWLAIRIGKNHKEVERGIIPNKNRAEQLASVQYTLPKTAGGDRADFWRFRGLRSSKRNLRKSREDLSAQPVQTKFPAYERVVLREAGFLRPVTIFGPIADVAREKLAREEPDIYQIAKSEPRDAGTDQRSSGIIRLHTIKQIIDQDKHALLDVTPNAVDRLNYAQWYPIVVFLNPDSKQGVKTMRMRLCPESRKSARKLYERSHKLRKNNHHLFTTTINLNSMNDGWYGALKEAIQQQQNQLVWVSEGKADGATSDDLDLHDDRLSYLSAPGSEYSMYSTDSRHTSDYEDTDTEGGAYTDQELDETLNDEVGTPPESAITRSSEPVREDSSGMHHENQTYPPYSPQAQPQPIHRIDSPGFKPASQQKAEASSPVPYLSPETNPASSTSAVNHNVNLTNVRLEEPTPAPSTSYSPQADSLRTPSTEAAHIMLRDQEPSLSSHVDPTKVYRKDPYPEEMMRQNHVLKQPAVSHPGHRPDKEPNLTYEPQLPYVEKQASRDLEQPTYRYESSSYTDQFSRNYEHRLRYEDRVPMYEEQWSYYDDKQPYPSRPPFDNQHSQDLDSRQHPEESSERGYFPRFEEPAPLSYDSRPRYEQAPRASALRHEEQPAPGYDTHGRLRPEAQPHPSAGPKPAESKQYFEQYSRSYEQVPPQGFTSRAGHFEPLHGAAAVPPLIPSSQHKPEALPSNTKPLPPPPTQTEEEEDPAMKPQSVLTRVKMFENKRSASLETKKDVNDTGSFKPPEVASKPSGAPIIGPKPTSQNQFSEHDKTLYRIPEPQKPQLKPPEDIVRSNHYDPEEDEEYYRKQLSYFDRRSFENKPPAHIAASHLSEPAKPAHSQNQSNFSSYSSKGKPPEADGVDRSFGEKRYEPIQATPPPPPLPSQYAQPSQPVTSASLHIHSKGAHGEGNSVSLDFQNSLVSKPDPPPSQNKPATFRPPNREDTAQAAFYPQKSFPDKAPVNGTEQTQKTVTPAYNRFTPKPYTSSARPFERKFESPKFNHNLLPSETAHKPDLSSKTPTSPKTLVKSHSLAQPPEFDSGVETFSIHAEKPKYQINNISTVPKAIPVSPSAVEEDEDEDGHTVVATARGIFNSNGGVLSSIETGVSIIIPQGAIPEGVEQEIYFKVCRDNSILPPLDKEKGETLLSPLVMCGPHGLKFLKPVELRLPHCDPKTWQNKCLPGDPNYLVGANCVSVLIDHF

[4] = target: T1, zonula occludens-1 (ZO-1), endogenous …; test: in situ proximity ligation assay in PC-3CTRΔESS cells
[5] = target: T2, ZO-1wt-YFP (wild-type ZO-1 fused to yellow fluorescent protein, ZO-1wt-EYFP-N1) (UniProt Q07157 1-1748); test: acceptor photobleaching FRET microscopy in live PC-31 cells
T2 construct: whole, on cells; also called ZO-wt-YFP; ZO-1-YFP; not shown: EYFP of the EYFP-N1 plasmid
T2 sequence (Q07157 whole entry, the tested form may be a part): as the sequence (Q07157 whole entry) above

Sequence of zonula occludens-1 (ZO-1), endogenous protein of prostate cancer cells and tumor specimens (UniProt Q07157) (Q07157 whole entry): as above

FLAG-CTRwt (full-length wild-type calcitonin receptor, FLAG-tagged, expressed in PC-3 / PC-31 cells) (from UniProt P30988 25-474)
decrease in transepithelial electric resistance (TER) of polarized PC-3 cells [1]: 40%
invasion through Matrigel after 50 nM CT [1]: 2.5 fold
fold increase in CTR-ZO-1 interactions (PLA dots) after CT against no CT [2]: 80 fold

B1: GST-CTR-CΔESS fusion protein (GST fused to the intracellular C-terminal domain of CTRΔESS, aa 441-476) (other, human, UniProt P30988 441-474, looked up)
chain: YICHQELRNEPANNQGEESAEIIPLNIIEQAAAA
notes: range 441-476; also called CTR-C-ΔPDZ; not shown: GST from the pGEX vector
binding result [3]: no binding (tested: 2 µg fusion protein)

B2: FLAG-CTRΔESS (full-length calcitonin receptor with the C-terminal PDZ-binding motif ESSA replaced by AAAA, FLAG-tagged) (receptor, human, UniProt P30988 25-474, looked up)
chain: AFSNQTYPTIEPKPFLYVVGRKKMMDAQYKCYDRMQQLPAYQGEGPYCNRTWDGWLCWDDTPAGVLSYQFCPDYFPDFDPSEKVTKYCDEKGVWFKHPENNRTWSNYTMCNAFTPEKLKNAYVLYYLAIVGHSLSIFTLVISLGIFVFFRSLGCQRVTLHKNMFLTYILNSMIIIIHLVEVVPNGELVRRDPVSCKILHFFHQYMMACNYFWMLCEGIYLHTLIVVAVFTEKQRLRWYYLLGWGFPLVPTTIHAITRAVYFNDNCWLSVETHLLYIIHGPVMAALVVNFFFLLNIVRVLVTKMRETHEAESHMYLKAVKATMILVPLLGIQFVVFPWRPSNKMLGKIYDYVMHSLIHFQGFFVATIYCFCNNEVQTTVKRQWAQFKIQWNQRWGRRPSNRSARAAAAAAEAGDIPIYICHQELRNEPANNQGEESAEIIPLNIIEQAAAA
notes: whole, on cells; also called FLAG-CTR-ΔPDZ; CTRΔPDZ; not shown: FLAG tag at the 5' end of the construct
binding result [4]: no binding

B3: CTRΔESS-CFP (calcitonin receptor with ESSA replaced by AAAA, fused to cyan fluorescent protein, CTRΔESS-ECFP-N1) (receptor, human, UniProt P30988 25-474, looked up)
chain: B2 chain
notes: whole, on cells; also called CTRΔESS (CTRΔPDZ)-CFP; not shown: ECFP of the ECFP-N1 plasmid
binding result [5]: no binding
